From patent US20020151463A1 (UT BATTELLE, published 2002)

B1: recombinant murine agouti protein (ligand)
chain: HLALEETLGDDRSLRSNSSMNSLDFSSVSIVALNKKSKKISRKEAEKRKRSSKKKASMKKVARPPPPSPCVATRDSCKPPAPACCDPCASCQCRFFGSACTCRVLNPNC
notes: Full-length mouse agouti cDNA expressed by baculovirus in T. ni cells; also called mouse agouti; agouti polypeptide
B2: recombinant human agouti protein (ligand)
chain: HLPPEEKLRDDRSLRSNSSVNLLDVPSVSIVALNKKSKQIGRKAAEKKRSSKKEASMKKVVRPRTPLSAPCVATRNSCKPPAPACCDPCASCQCRFFRSACSCRVLSLNC

Key:
murine MSH receptor [1] = molecular target: T1, murine MSH receptor (mouse, UniProt Q01727 1-315); assay: competition binding against 125I-ACTH1-39 on Cloudman M-3 melanoma cells, single-site model
T1 construct: whole, on cells; Stably transfected in 293 cells for the adenylyl cyclase assays; also called mMSH-R; mouse MSH-R
Procedure: To investigate this further, the ability of the protein to compete with another melanocortin peptide for binding to the mouse MSH-R was examined. […] Competition binding studies were performed with ¹²⁵I-labelled ACTH₁₋₃₉ and the M-3 subclone of the Cloudman murine melanoma cell line.

murine MSH receptor [2] = molecular target: T1, murine MSH receptor; assay: cell-based or functional assay
human MSH receptor = human MSH receptor (human, UniProt Q01726 1-317); assay: cell-based or functional assay
Chain of human MSH receptor (Q01726 whole entry): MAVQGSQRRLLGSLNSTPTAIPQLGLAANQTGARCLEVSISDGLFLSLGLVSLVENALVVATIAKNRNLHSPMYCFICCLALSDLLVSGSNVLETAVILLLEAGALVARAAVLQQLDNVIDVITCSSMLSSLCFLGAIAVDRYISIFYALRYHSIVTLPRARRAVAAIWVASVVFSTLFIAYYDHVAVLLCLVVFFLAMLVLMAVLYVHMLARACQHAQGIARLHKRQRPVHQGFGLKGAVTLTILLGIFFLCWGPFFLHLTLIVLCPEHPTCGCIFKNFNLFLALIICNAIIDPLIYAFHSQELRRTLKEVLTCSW

T1 sequence (Q01727 whole entry): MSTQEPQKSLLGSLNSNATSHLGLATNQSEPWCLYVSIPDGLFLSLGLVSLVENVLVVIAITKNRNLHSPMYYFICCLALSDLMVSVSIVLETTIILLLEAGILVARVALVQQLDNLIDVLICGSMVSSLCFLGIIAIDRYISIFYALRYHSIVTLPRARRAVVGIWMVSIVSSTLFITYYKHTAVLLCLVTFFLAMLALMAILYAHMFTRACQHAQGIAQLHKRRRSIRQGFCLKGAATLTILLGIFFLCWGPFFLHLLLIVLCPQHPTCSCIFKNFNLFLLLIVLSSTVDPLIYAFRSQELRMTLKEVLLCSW

Row | Binder | IC50 (murine MSH receptor [1]) | Ki (murine MSH receptor [1]) | apparent Ki (antagonism of α-MSH-stimulated adenylyl cyclase, four independent studies) (murine MSH receptor [2]) | EC50 of the [Ca^2+]i dose response in the HEK-293 MC1R line (human MSH receptor)
1 | B1 | 1.2 ng/mL | 0.66 nM | 0.32 nM | –
2 | B2 | – | – | – | ~18 nM
